Source: US20170044241A1 (VYBION, published 2017)
No end group written: not given here. biotin = biotin label at C-terminus

Tests used:
[1] = biological target: T1, biotinylated Huntingtin peptide Happ(+) (RPQLPQPPPQAQPRGGGSK-biotin); test: ELISA, purified scFv on biotinylated peptide
T1 construct: also called biotinylated PRP; poly-proline peptide
T1 peptide: RPQLPQPPPQAQPRGGGSK-biotin
Experimental: (§1) ELISA was performed to determine the binding activity of isolated scFv clones against biotinylated Huntingtin peptide designated Happ(+) ([…]-biotin (SEQ ID NO: 26), and a second biotinylated Huntingtin peptide designated Happ(−) ([…]-biotin (SEQ ID NO: 28). All incubations except antigen coating were carried out at room temperature. Microtiter plates (Nuc) were coated with 100 μl of a biotinlyated Huntingtin peptide solution (2 μg/ml in 50 mM NaHCO3 buffer, pH 9.6) and incubated overnight at 4° C. The plates were washed 3 times with 200 μl of 1×TBS (50 mM Tris-Cl, 150 mM NaCl pH 8.0) and blocked with 100 μl of 2% milk in TBS for 2 hr. Plates were washed once with 200 μl of 1×TBS. In some experiments, preblocked Strepavidin coated plates (Pierce) were used to bind biotinylated peptide. Cell extracts (50 μl) or purified StrepII tagged Intrabodies were added to the antigen-coated blocked plates and incubated for 1.5 hr. Extracts of E. coli cultures from individual colonies selected by panning after overnight induction with IPTG were prepared by lysis in B-Per (Pierce) as described by the manufacturer and centrifuged at 10,000×g for 10 minutes to remove cell wall and debris. Supernatants from these extracts were used directly or diluted with TBS (1:2, 1:4) prior to use. […] The optical density (OD) was measured at 405 nm on a spectrophotometer and the level of scFv binding determined. […]

[2] = biological target: T2, biotinylated Huntingtin peptide Happ(-) (PGPAVAEEPLHRPG-biotin); test: ELISA, purified intrabody on poly-proline peptides (FIG. 1A)
T2 construct: also called second biotinylated proline rich peptide; carboxy derived Huntington's peptide
T2 peptide: PGPAVAEEPLHRPG-biotin
Experimental: as §1

[3] = biological target: T1, biotinylated Huntingtin peptide Happ(+) …; test: ELISA, purified intrabody on poly-proline peptides (FIG. 1B)
Experimental: as §1

[4] = biological target: T2, biotinylated Huntingtin peptide Happ(-) …; test: as above
Experimental: as §1

[5] = biological target: T1, biotinylated Huntingtin peptide Happ(+) …; test: ELISA, purified intrabody on poly-proline peptides (FIG. 1C)
Experimental: as §1

[6] = biological target: T2, biotinylated Huntingtin peptide Happ(-) …; test: as above
Experimental: as §1

[7] = biological target: T1, biotinylated Huntingtin peptide Happ(+) …; test: ELISA, H8 in E. coli lysate against purified H8; peptide not given
[8] = biological target: T2, biotinylated Huntingtin peptide Happ(-) …; test: as above

B1: INT41 (scFv)
scFv: MAEVQLVVSGGGLVKPGGSMILSCAASGFTFSNYSMNWVRQAPGKGLEWVSSISSSSEYIYYADFVKGRFTISRDNAKNSLYLQMDSLRAEDTAVYYCAWPGYRKAWGRGTLVTVSSGGGGSGGGGSGGGGSQSVLTQPASVSGSPGQSITISCAGTSSDVGGYNYVSWYQQHPGKAPKLMIYEDSKRPSGVSNRFSGSKSGNTASLTISGLRAEDEADYYCSYCASKGHWLFGGGTKLAVLGAAAEQKLIS
notes: Single chain intrabody (VH-linker-VL) from the T3 scFv library; Purified from E. coli with a carboxy terminal StrepII tag for the ELISA; also called INT41 intrabody; not shown: carboxy terminal StrepII tag of the purified form (pET24)
binding result [1]: binds
binding result [2]: binds

B2: A2 (scFv)
scFv: MAEVQLVVSGGGLVKPGGSMILSCAASGFTFSNYSMNWVRQAPGKGLEWVSSISSSSEYIYYADFVKGRFTISRDNAKNSLYLQMDSLRAEDTAVYYCAHWPRLWRFPLWGRGTLVTVSSGGGGSGGGGSGGGGSQSVLTQPASVSGSPGQSITISCAGTSSDVGGYNYVSWYQQHPGKAPKLMIYEDSKRPSGVSNRFSGSKSGNTASLTISGLRAEDEADYYCVLNMHWANFGGGTKLAVLGAAAEQKLIS
notes: Single chain intrabody; purified with a carboxy terminal StrepII tag for the ELISA; not shown: carboxy terminal StrepII tag of the purified form (pET24)
binding result [3]: binds
binding result [4]: binds

B3: E10 (scFv)
scFv: MAEVQLVVSGGGLVKPGGSMILSCAASGFTFSNYSMNWVRQAPGKGLEWVSSISSSSEYIYYADFVKGRFTISRDNAKNSLYLQMDSLRAEDTAVYYCAITGCECTWGRGTLVTVSSGGGGSGGGGSGGGGSQSVLTQPASVSGSPGQSITISCAGTSSDVGGYNYVSWYQQHPGKAPKLMIYEDSKRPSGVSNRFSGSKSGNTASLTISGLRAEDEADYYCSCIRGLKAAYFGGGTKLAVLGAAAEQKLIS
notes: as for B2
binding result [5]: binds
binding result [6]: binds

B4: H8 (scFv)
scFv: MAEVQLVVSGGGLVKPGGSMILSCAASGFTFSNYSMNWVRQAPGKGLEWVSSISSSSEYIYYADFVKGRFTISRDNAKNSLYLQMDSLRAEDTAVYYCAAAVCNGRPDTWGRGTLVTVSSGGGGSGGGGSGGGGSQSVLTQPASVSGSPGQSITISCAGTSSDVGGYNYVSWYQQHPGKAPKLMIYEDSKRPSGVSNRFSGSKSGNTASLTISGLRAEDEADYYCGYSLLPVLFGGGTKLAVLGAAAEQKLIS
notes: Single chain intrabody; tested purified (StrepII tag) and also in E. coli lysate form; not shown: carboxy terminal StrepII tag of the purified form (pET24)
fold signal, lysate form against purified form [7]: 3 times
fold signal, lysate form against purified form [8]: 3 times
